This is an account of results in patent US20250154272A1 (Astellas, published 2025).

Read-outs that look alike come from different tables or passages of the source.

One may read the EC50 (read off the curve) as the concentration at which the effect is half-maximal. One may read the koff as the first-order rate constant of dissociation. What is called kon is a measure of how fast the partners come together.

Assay [1] addresses T1, human CLDN4-Myc-DDK expressed on CHO-K1 cells (human, UniProt O14493 1-209).
T1 construct: whole, on cells; also called human CLDN4-Myc-DDK expressing CHO-K1 cells; not shown: Myc-DDK tag of the ORIGENE construct
T1 sequence (looked up): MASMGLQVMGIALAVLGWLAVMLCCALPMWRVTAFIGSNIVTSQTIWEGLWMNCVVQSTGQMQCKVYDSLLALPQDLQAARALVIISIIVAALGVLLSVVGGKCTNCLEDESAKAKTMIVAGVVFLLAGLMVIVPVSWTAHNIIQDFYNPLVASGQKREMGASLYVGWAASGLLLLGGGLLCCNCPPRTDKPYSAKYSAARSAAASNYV
In words: binding experiment on human CLDN4-Myc-DDK expressing CHO-K1 cells.

Assay [2] addresses T2, human EpCAM-Myc-DDK expressed on CHO-K1 cells (human, UniProt P16422 24-314).
T2 construct: whole, on cells; also called EpCAM expressing cells; not shown: Myc-DDK tag of the ORIGENE construct
T2 sequence (looked up): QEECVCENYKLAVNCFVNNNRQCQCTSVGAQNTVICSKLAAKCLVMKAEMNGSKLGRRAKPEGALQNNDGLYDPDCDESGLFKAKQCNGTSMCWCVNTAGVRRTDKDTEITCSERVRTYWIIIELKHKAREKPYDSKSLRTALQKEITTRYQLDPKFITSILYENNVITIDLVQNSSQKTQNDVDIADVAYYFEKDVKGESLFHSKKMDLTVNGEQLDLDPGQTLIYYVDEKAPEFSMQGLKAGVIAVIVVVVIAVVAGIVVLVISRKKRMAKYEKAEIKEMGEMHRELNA
Briefly: flow cytometry of the clone supernatant on human EpCAM-Myc-DDK expressing CHO-K1 cells. (Flow cytometry measures light scatter and fluorescence of single cells or particles in a stream.)

Assay [3] deals with T3, human CD137-His tag protein (R&D Systems, 9220-4B) (human, UniProt Q07011 24-186).
T3 construct: Bought protein; not shown: His tag of the bought protein
In words: ELISA, human CD137-His tag protein immobilized on the plate, anti-human IgG Fc-HRP, A450-A570.

Assay [4] addresses T3, human CD137-His tag protein (R&D …). Briefly: SPR, Biacore T200, antibody captured on Protein A chip, CD137 as analyte. A general note: In SPR one partner is held on a chip, and binding of the other changes the refractive index at the surface.
In assay [5] the target is T4, monkey CD137-His tag-3×FLAG tag fusion protein (monkey).
T4 construct: Residues 1-183 are the encoded extracellular region as stated; also called Monkey CD137-His-3 × FLAG
T4 chain: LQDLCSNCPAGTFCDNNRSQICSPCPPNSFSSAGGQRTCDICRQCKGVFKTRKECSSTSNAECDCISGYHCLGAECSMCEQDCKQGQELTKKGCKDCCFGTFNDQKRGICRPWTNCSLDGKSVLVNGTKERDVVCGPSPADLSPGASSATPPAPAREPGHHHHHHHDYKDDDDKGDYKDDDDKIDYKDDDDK
Described as above.

The target in assay [6] is T3, human CD137-His tag protein (R&D …). Briefly: ELISA, human CD137-His tag protein immobilized on the plate, anti-human IgG Fc-HRP, A450-A570. The source holds these as a separate data set. (In general: An ELISA detects its analyte on a solid surface through an enzyme-linked reagent.)
The target in assay [7] is T5, human CLDN4 expressed on CHO-K1 cells (human, UniProt O14493 1-209).
T5 construct: whole, on cells; also called human CLDN4 expressing CHO-K1
T5 sequence (looked up): T1 sequence (looked up)
In words: flow cytometry on human CLDN4 expressing CHO-K1, apparent KD.

The target in assay [8] is T3, human CD137-His tag protein (R&D …). In words: ELISA, human CD137-His tag protein immobilized on the plate, anti-human IgG Fc-HRP, A450-A570. This is another data set of the same source.

B1: 3D11 antibody (antibody, V domains shown)
VH: QVQLGQSGPEVKKPGASVKVSCKASGYSFISYGISWVRQAPGQGLEWMGWSSVYNGNTNYVQKFQGRVTMTTDTSASTAYMELRSLRSDDAAVYYCARDSYSSGWSYYYSGMDVWGQGTTVTVSS
VL: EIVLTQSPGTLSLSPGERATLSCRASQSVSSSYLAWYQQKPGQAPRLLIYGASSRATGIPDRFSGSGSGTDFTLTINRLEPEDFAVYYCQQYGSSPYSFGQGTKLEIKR
notes: Purified from the hybridoma supernatant of a VelocImmune mouse: human variable regions with mouse constant regions (chimeric antibody); also called 3D11 clone
B1: the binding result is on record as “binds” in assay [1] and “no binding” in assay [2].

B2: anti-CLDN4 (hKM3900)/anti-CD137 scFv bispecific antibody hKM3900_3-34-j6 (bispecific antibody, human IgG1, kappa, L234A L235A)
heavy: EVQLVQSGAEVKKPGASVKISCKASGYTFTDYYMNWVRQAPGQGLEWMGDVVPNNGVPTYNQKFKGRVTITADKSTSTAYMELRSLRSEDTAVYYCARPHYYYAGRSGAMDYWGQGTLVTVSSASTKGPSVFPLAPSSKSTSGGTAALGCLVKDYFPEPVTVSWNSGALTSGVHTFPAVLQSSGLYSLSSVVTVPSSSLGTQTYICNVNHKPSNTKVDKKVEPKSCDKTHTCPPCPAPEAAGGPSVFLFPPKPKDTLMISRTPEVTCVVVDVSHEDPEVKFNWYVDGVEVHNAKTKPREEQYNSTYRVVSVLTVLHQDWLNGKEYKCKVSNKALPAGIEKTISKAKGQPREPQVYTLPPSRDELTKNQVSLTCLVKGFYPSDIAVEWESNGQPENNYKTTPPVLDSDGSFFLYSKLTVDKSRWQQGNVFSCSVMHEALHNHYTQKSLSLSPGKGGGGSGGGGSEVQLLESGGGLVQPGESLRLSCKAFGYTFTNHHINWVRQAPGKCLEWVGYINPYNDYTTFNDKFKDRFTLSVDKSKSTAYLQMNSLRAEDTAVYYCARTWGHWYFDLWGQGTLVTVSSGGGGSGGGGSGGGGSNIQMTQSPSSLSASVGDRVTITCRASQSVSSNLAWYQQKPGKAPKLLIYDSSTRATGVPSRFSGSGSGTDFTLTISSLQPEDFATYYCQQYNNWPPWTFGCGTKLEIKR
light: DIQLTQSPSSLSASVGDRVTITCTASSTVSSTYLHWYQQKPGKAPKLLIYSTSNLASGVPSRFSGSGSGTDYTLTISSLQPEDFATYYCHQYHRSPPTFGQGTKLEIKRTVAAPSVFIFPPSDEQLKSGTASVVCLLNNFYPREAKVQWKVDNALQSGNSQESVTEQDSKDSTYSLSSTLTLSKADYEKHKVYACEVTHQGLSSPVTKSFNRGEC
notes: The heavy chain entry holds the hKM3900 heavy chain (L234A, L235A, P331G), the linker and the 3-34-j6 scFv
With B2, the “EC50 (read off the curve)” value is approximately 8 ng/mL in assay [3], approximately 10 ng/mL in assay [6] and approximately 6 ng/mL in assay [8]. Besides, the Kd in assay [4] is 5.81 nM; in assay [5], 10.7 nM; in assay [7], 11.2 nM. The results for the off-rate constant (koff) in assay [4] and in assay [5] were 0.00135 s⁻¹ and 0.00191 s⁻¹, respectively. Further, the kon in assay [4] stood at 232000 M⁻¹ s⁻¹; in assay [5], 179000 M⁻¹ s⁻¹.

B3: anti-CLDN4 (hKM3900)/anti-CD137 scFv bispecific antibody hKM3900_L-3-34-j6 (bispecific antibody)
heavy: EVQLVQSGAEVKKPGASVKISCKASGYTFTDYYMNWVRQAPGQGLEWMGDVVPNNGVPTYNQKFKGRVTITADKSTSTAYMELRSLRSEDTAVYYCARPHYYYAGRSGAMDYWGQGTLVTVSS
light (part 1 of 2): B2 light
light (part 2 of 2): EVQLLESGGGLVQPGESLRLSCKAFGYTFTNHHINWVRQAPGKCLEWVGYINPYNDYTTFNDKFKDRFTLSVDKSKSTAYLQMNSLRAEDTAVYYCARTWGHWYFDLWGQGTLVTVSSGGGGSGGGGSGGGGSNIQMTQSPSSLSASVGDRVTITCRASQSVSSNLAWYQQKPGKAPKLLIYDSSTRATGVPSRFSGSGSGTDFTLTISSLQPEDFATYYCQQYNNWPPWTFGCGTKLEIKR
notes: scFv at the light chain C-terminus; not shown: human IgG1 heavy chain constant region; mutation positions by EU index; GS linker
For B3, the “EC50 (read off the curve)” value in assay [8] is approximately 4 ng/mL.

B4: anti-CLDN4 (hKM3900)/anti-CD137 scFv bispecific antibody hKM3900_tA2-32LH (bispecific antibody, human IgG1, kappa, L234A L235A)
heavy: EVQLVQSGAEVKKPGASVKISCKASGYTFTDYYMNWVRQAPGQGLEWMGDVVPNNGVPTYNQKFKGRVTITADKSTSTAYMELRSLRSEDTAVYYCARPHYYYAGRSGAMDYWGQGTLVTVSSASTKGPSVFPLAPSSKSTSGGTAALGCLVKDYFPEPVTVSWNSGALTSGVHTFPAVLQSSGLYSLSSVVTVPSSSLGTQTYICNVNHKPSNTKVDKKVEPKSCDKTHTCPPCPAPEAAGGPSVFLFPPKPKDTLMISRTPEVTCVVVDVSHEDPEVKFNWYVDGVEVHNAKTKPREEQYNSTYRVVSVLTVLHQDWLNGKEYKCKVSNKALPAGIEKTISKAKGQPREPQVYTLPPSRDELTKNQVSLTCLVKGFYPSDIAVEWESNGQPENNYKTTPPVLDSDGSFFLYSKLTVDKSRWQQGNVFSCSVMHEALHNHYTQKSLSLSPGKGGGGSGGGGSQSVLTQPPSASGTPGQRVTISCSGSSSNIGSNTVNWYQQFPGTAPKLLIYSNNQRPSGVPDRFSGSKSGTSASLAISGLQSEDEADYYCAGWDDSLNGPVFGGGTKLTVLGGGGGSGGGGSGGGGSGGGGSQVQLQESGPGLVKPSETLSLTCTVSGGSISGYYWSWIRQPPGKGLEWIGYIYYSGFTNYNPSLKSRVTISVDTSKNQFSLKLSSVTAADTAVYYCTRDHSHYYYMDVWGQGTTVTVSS
light: B2 light
notes: The heavy chain entry holds the hKM3900 heavy chain (L234A, L235A, P331G), the linker and the tA2-32LH scFv
As for B4, the 50% effective concentration (EC50 (read off the curve)) in assay [3] was approximately 8 ng/mL; in assay [6] it was approximately 10 ng/mL. In addition, the Kd in assay [4] was 5.84 nM; in assay [5], 6.68 nM; in assay [7] it was 10.8 nM. Besides, the off-rate (koff) in assay [4] was found to be 0.00219 s⁻¹; in assay [5], 0.00192 s⁻¹. Also, the kon in assay [4] was found to be 374000 M⁻¹ s⁻¹; in assay [5], 288000 M⁻¹ s⁻¹.
